Experimental data as given in paper PMC3805332, “Synthesis of α-Glucan in Mycobacteria Involves a Hetero-octameric Complex of Trehalose Synthase TreS and Maltokinase Pep2” (ACS Chemical Biology, 2013).
Read-outs that look alike come from different tables or passages of the source.

Legend:
[1] = molecular target: M. tuberculosis trehalose synthase TreS (M. tuberculosis H37Rv) (UniProt P9WQ19); assay: AUC
[2] = molecular target: M. tuberculosis trehalose synthase TreS (M. tuberculosis H37Rv) (UniProt P9WQ19); assay: AUC; remark: listed apart in the source

M. tuberculosis trehalose synthase TreS (M. tuberculosis H37Rv), sequence (P9WQ19 whole entry): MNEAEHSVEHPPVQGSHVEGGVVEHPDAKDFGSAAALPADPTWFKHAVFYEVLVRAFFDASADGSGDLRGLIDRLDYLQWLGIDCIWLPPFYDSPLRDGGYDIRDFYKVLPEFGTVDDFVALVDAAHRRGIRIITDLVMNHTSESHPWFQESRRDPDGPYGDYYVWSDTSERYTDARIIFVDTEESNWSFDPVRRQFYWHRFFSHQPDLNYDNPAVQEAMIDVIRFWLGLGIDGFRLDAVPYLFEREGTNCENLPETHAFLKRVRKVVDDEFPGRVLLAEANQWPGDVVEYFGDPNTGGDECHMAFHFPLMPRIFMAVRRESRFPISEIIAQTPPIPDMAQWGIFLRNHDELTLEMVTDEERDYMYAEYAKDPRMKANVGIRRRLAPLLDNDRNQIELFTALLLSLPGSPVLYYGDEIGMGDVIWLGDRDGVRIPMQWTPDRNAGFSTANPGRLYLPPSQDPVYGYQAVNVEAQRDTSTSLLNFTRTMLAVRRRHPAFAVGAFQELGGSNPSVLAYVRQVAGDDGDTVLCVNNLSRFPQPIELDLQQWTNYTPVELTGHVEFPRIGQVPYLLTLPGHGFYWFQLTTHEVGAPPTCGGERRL

“M. tuberculosis maltokinase Pep2 (from UniProt O07177 1-455) (enzyme)” showed a stoichiometry N (Pep2 subunits per TreS tetramer) [1] of 2 and a stoichiometry N (Pep2 subunits per TreS tetramer) [2] of 4.
